Where “and” joins values, the source holds several entries; their conditions need not be identical. Equal entries are not always repeated. Where two headings read alike, the source gives them in different places.
Assays:
[1] = target: human FcγRIIIa (F158 allele) (human) (UniProt P08637)
[2] = target: human FcγRIIIa (V158 allele) (human) (UniProt P08637)
[3] = target: human FcγRIIa (H131 allele) (human) (UniProt P12318)
[4] = target: human FcγRIIb (human) (UniProt P31994)
[5] = target: human FcRn (human) (UniProt P55899); assay: MSD
human FcRn (human), sequence (P55899 24-297 limits assumed, chain 1 of 2): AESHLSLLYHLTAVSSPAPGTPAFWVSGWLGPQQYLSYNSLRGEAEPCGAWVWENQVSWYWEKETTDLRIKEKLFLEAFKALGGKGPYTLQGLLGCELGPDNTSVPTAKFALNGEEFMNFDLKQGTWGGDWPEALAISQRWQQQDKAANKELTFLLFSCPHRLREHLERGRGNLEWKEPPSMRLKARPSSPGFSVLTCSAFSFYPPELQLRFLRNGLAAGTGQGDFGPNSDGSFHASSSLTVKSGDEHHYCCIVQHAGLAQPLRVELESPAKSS
human FcRn (human), sequence (chain, as listed by the source limits assumed, chain 2 of 2): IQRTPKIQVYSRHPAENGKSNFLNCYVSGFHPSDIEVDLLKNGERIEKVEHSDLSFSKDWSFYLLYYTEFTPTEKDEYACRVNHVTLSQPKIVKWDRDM

[6] = target: human FcγRIIIa (F158 allele) (human) (UniProt P08637); assay: MSD
[7] = target: human FcγRIIIa (V158 allele) (human) (UniProt P08637); assay: MSD
[8] = target: human FcγRIIIb (human) (UniProt O75015); assay: MSD
human FcγRIIIb (human), sequence (O75015 17-200 limits assumed): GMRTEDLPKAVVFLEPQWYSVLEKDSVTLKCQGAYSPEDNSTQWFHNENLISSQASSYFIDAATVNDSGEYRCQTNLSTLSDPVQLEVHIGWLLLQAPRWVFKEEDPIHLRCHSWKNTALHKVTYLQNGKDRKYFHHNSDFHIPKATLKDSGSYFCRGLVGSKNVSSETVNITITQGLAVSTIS

[9] = target: human FcγRIIa (H131 allele) (human) (UniProt P12318); assay: MSD
[10] = target: human FcγRIIa (R131 allele) (human) (UniProt P12318); assay: MSD
human FcγRIIa (R131 allele) (human), sequence (P12318 34-218 H167R limits assumed): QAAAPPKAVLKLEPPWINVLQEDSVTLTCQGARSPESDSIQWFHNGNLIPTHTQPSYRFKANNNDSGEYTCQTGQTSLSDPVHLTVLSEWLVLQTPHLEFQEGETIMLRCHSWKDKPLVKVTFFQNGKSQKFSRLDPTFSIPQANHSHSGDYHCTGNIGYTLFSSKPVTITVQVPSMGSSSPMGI

[11] = target: human FcγRIIb (human) (UniProt P31994); assay: MSD
[12] = target: human C1q (human) (UniProt P02745); assay: MSD [cont'd]
human C1q (human), sequence (P02745 23-245 limits assumed, chain 1 of 3): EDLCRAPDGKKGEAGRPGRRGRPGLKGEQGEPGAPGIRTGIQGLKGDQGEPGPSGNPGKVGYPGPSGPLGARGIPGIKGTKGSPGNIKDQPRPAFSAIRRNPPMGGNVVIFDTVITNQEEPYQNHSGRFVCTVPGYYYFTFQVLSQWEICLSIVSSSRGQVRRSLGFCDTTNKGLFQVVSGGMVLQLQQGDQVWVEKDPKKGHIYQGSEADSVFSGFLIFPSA
human C1q (human), sequence (P02746 28-253 limits assumed, chain 2 of 3, further chain): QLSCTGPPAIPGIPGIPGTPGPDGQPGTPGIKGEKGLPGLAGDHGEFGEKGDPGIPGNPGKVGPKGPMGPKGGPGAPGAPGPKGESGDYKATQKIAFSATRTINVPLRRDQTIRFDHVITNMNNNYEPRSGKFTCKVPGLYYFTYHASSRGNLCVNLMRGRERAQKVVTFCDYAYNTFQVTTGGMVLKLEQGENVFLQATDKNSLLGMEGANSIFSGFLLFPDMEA
human C1q (human), sequence (P02747 29-245 limits assumed, chain 3 of 3, further chain): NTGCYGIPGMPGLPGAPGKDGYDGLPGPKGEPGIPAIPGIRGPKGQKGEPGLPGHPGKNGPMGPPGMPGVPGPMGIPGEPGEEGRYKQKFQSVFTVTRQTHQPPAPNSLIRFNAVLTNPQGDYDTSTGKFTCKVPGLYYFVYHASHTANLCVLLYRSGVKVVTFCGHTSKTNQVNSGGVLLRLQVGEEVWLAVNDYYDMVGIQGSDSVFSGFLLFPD

[13] = target: human FcRn (human) (UniProt P55899); assay: MSD [cont'd]
[14] = target: human FcRn (human) (UniProt P55899); assay: MSD, pH 6 [cont'd]
[15] = target: human FcγRIIIa (F158 allele) (human) (UniProt P08637); remark: listed apart in the source
[16] = target: human FcγRIIIa (V158 allele) (human) (UniProt P08637); remark: listed apart in the source
[17] = target: human FcγRIIIa (F158 allele) (human) (UniProt P08637); assay: MSD [cont'd]
[18] = target: human FcγRIIIa (V158 allele) (human) (UniProt P08637); assay: MSD [cont'd]
[19] = target: human FcγRIIIb (human) (UniProt O75015); assay: MSD [cont'd]
[20] = target: human FcγRIIa (H131 allele) (human) (UniProt P12318); assay: MSD [cont'd]
[21] = target: human FcγRIIa (R131 allele) (human) (UniProt P12318); assay: MSD [cont'd]
[22] = target: human FcγRIIb (human) (UniProt P31994); assay: MSD [cont'd]
[23] = target: human C1q (human) (UniProt P02745); assay: MSD
[24] = target: human FcγRIIIa (F158 allele) (human) (UniProt P08637); remark: listed apart in the source
[25] = target: human FcγRIIa (H131 allele) (human) (UniProt P12318); remark: listed apart in the source
[26] = target: human FcγRIIb (human) (UniProt P31994); remark: listed apart in the source

human FcγRIIIa (F158 allele) (human), sequence (P08637 17-208 limits assumed): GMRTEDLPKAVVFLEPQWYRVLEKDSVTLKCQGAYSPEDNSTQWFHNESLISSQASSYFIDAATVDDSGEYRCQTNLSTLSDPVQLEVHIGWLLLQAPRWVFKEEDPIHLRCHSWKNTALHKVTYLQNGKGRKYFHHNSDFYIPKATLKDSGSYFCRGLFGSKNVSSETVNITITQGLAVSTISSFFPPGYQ
human FcγRIIa (H131 allele) (human), sequence (P12318 34-218 limits assumed): as the sequence (P12318 34-218 H167R limits assumed) above, with R134H counted along it
human FcγRIIIa (V158 allele) (human), sequence (P08637 17-208 F176V limits assumed): as the sequence (P08637 17-208 limits assumed) above, with F160V counted along it
human FcγRIIb (human), sequence (P31994 43-217 limits assumed): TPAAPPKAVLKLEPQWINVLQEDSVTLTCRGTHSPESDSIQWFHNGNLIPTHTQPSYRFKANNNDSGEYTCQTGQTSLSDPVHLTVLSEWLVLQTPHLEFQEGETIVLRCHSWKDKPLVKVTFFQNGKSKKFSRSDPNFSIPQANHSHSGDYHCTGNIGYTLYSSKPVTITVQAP

Substance: G236A_A330L_I332E_M428L_N434S (antibody)
- FcγR reporter signaling, fold-change vs wt [cont'd] [1]: 13.5 fold
- FcγR reporter signaling, fold-change vs wt [cont'd] [2]: 3.92 fold
- FcγR reporter signaling, fold-change vs wt [cont'd] [3]: 2.32 fold
- FcγR reporter signaling, fold-change vs wt [cont'd] [4]: 0.35 fold
- fold-change vs FY1 rIgG1m3 [5]: 12.3 fold
- fold-change vs FY1 rIgG1m3-MLNS [5]: 0.68 fold
- fold-change vs FY1 rIgG1m3 [6]: 9.4 fold
- fold-change vs FY1 rIgG1m3-MLNS [6]: 14.4 fold
- fold-change vs wt [6]: 9.41 fold
- fold-change to WT Fc [7]: 1.56 fold
- fold-change vs FY1 rIgG1m3 [7]: 1.6 fold
- fold-change vs FY1 rIgG1m3-MLNS [7]: 2.1 fold
- fold-change vs wt [7]: 1.56 fold
- fold-change vs FY1 rIgG1m3 [8]: 1.4 fold
- fold-change vs FY1 rIgG1m3-MLNS [8]: 1.9 fold
- fold-change vs wt [8]: 1.4 fold
- fold-change to WT Fc [9]: 2.89 fold
- fold-change vs FY1 rIgG1m3 [9]: 2.9 fold
- fold-change vs FY1 rIgG1m3-MLNS [9]: 3.8 fold
- fold-change vs wt [9]: 2.89 fold
- fold-change vs FY1 rIgG1m3 [10]: 1.3 fold
- fold-change vs FY1 rIgG1m3-MLNS [10]: 2.5 fold
- fold-change vs wt [10]: 1.27 fold
- fold-change to WT Fc [11]: 0.422 fold
- fold-change vs FY1 rIgG1m3 [11]: 0.4 fold
- fold-change vs FY1 rIgG1m3-MLNS [11]: 0.8 fold
- fold-change vs wt [11]: 0.42 fold
- fold-change vs wt [12]: 0 fold
- fold-change vs wt [13]: 12.3 fold
- fold-change to WT Fc [14]: 12.3 fold

Substance: G236A_R292P_I377N-afuc (antibody)
- FcγR reporter signaling, fold to wt-fucose [cont'd] [15]: 9.68 fold
- FcγR reporter signaling, fold to wt-fucose [cont'd] [16]: 3.94 fold
- fold-change (reference not given) [6]: 14.8 fold
- fold-change (reference not given) [7]: 7.1 fold
- fold-change (reference not given) [8]: 1.2 fold
- fold-change (reference not given) [9]: 5.5 fold
- fold-change (reference not given) [10]: 1.4 fold
- fold-change (reference not given) [11]: 0.6 fold
- fold to wt-fucose [13]: 0.8 fold
- fold to wt-fucose [17]: 14.8 fold
- fold to wt-fucose [18]: 7.14 fold
- fold to wt-fucose [19]: 1.2 fold
- fold to wt-fucose [20]: 5.54 fold
- fold to wt-fucose [21]: 1.35 fold
- fold to wt-fucose [22]: 0.6 fold

Substance: IgG1 antibody with Fc variant G236A_Y300L
- fold-change vs FY1 rIgG1m3 [23]: 0.98 fold
- fold-change vs FY1 rIgG1m3 [6]: 1 fold
- fold-change vs FY1 rIgG1m3 [7]: 0.9 fold
- fold-change vs FY1 rIgG1m3 [8]: 0.97 fold
- fold-change vs FY1 rIgG1m3 [9]: 18.2 fold
- fold-change vs FY1 rIgG1m3 [10]: 4.6 fold
- fold-change vs FY1 rIgG1m3 [11]: 1.1 fold

Substance: G236A_A330L_I332E-afuc (antibody)
- FcγR reporter signaling, fold to wt-fucose [cont'd] [15]: 14.8 fold
- FcγR reporter signaling, fold to wt-fucose [cont'd] [16]: 5.27 fold
- fold-change (reference not given) [6]: 242 fold
- fold-change (reference not given) [7]: 28 fold
- fold-change (reference not given) [8]: 14.8 fold
- fold-change (reference not given) [9]: 3.1 fold
- fold-change (reference not given) [10]: 1.6 fold
- fold-change (reference not given) [11]: 0.6 fold
- fold to wt-fucose [13]: 1.09 fold
- fold to wt-fucose [17]: 259 fold
- fold to wt-fucose [18]: 32 fold
- fold to wt-fucose [19]: 14.1 fold
- fold to wt-fucose [20]: 3.45 fold
- fold to wt-fucose [21]: 1.65 fold
- fold to wt-fucose [22]: 0.67 fold

Substance: IgG1 antibody with Fc variant G236A (afucosylated)
- fold-change (reference not given) [23]: 0.16 fold
- fold-change (reference not given) [6]: 17.2 fold and 35.6 fold
- fold-change (reference not given) [7]: 6.7 fold
- fold-change (reference not given) [8]: 2.1 fold and 1.8 fold
- fold-change (reference not given) [9]: 5.4 fold and 9.5 fold
- fold-change (reference not given) [10]: 6.1 fold and 9.9 fold
- fold-change (reference not given) [11]: 0.6 fold and 1.1 fold

Substance: L309T_P238D_P396L_T366A (antibody)
- FcγR reporter signaling, fold-change vs wt [cont'd] [24]: 0.05 fold
- FcγR reporter signaling, fold-change vs wt [cont'd] [25]: 0.04 fold
- FcγR reporter signaling, fold-change vs wt [cont'd] [26]: 0.91 fold

Substance: G236A_A330L_I332E_M428L_N434S-afuc (antibody)
- FcγR reporter signaling, fold to wt-fucose [cont'd] [15]: 16.4 fold
- FcγR reporter signaling, fold to wt-fucose [cont'd] [16]: 6.2 fold
- fold-change (reference not given) [6]: 256 fold
- fold-change (reference not given) [7]: 30.2 fold
- fold-change (reference not given) [8]: 12.3 fold
- fold-change (reference not given) [9]: 2.3 fold
- fold-change (reference not given) [10]: 1.1 fold
- fold-change (reference not given) [11]: 0.4 fold
- fold to wt-fucose [13]: 7.37 fold
- fold to wt-fucose [17]: 275 fold
- fold to wt-fucose [18]: 34.5 fold
- fold to wt-fucose [19]: 11.8 fold
- fold to wt-fucose [20]: 2.56 fold
- fold to wt-fucose [21]: 1.2 fold
- fold to wt-fucose [22]: 0.41 fold

Reference: patent publication US20260184814A1, “BROADLY NE[…] INFLUENZA NEURAMINIDASE” (priority 2022, published 2026)
